Results reported in patent US20240287161A1.

Key:
[1] = biological target: SARS-CoV-2 spike receptor-binding domain (RBD, amino acids 322 to 536), histidine-tagged (Example 2) (SARS-CoV-2) (UniProt P0DTC2)
[2] = biological target: SARS-CoV2 S protein on VSV pseudovirus (SARS-CoV-2) (UniProt P0DTC2)
[3] = biological target: Authentic CoV2 (SARS-CoV-2 JPN/TY/WK-521)

| Substance | EC50 [1] [µg/mL] | IC50, pseudovirus neutralization [2] [µg/mL] | IC50, authentic virus neutralization [3] [µg/mL] |
| --- | --- | --- | --- |
| REGN10987 (antibody) | 3.3 | 0.0416 | 0.134 |
| REGN10933 (antibody) | 0.194 | 0.0089 | 0.0381 |
